Experimental data as given in patent publication US20170313781A1 (IMMUNOMEDICS, published 2017).
Read-outs that look alike come from different tables or passages of the source.

T1: human Trop-2 on the surface of human tumor cells (human, UniProt P09758 27-323)
T1 construct: whole, on cells; also called EGP-1; TACSTD2
T1 sequence (looked up): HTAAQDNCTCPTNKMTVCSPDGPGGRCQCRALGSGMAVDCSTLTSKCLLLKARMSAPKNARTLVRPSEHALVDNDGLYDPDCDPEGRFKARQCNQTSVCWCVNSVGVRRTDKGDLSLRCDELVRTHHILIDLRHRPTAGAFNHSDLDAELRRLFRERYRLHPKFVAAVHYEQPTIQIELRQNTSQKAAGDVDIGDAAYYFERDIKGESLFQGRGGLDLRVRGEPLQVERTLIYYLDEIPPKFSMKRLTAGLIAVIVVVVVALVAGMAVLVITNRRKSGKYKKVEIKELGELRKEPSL

B1: humanized RS7 (hRS7) anti-Trop-2 IgG (antibody, INN chains, looked up, V domains shown)
VH: QVQLQQSGSELKKPGASVKVSCKASGYTFTNYGMNWVKQAPGQGLKWMGWINTYTGEPTYTDDFKGRFAFSLDTSVSTAYLQISSLKADDTAVYFCARGGFGSSYWYFDVWGQGSLVTVSS
VL: DIQLTQSPSSLSASVGDRVSITCKASQDVSIAVAWYQQKPGKAPKLLIYSASYRYTGVPDRFSGSGSGTDFTLTISSLQPEDFAVYYCQQHYITPLTFGAGTKVEIK
B2: hRS7-CL2-SN-38 (antibody, INN chains, looked up, V domains shown)
VH: QVQLQQSGSELKKPGASVKVSCKASGYTFTNYGMNWVKQAPGQGLKWMGWINTYTGEPTYTDDFKGRFAFSLDTSVSTAYLQISSLKADDTAVYFCARGGFGSSYWYFDVWGQGSLVTVSS
VL: DIQLTQSPSSLSASVGDRVSITCKASQDVSIAVAWYQQKPGKAPKLLIYSASYRYTGVPDRFSGSGSGTDFTLTISSLQPEDFAVYYCQQHYITPLTFGAGTKVEIK
modifications: SN-38 via CL2 linker
B3: murine RS7 anti-Trop-2 monoclonal antibody (antibody, V domains shown)
VH: VKLQESGPELKKPGETVKISCKASGYTFTNYGMNWVKQAPGKGLKWMGWINTYTGEPTYTDDFKGRFAFSLETSATTAYLQINNLKSEDMATYFCARGGFGSSYWYFDVWGQGTTVTVSS
VL: DIQLTQSHKFMSTSVGDRVSITCKASQDVSIAVAWYQQKPGQSPKLLIYSASYRYTGVPDRFTGSGSGTDFTFTISSVQAEDLAVYYCQQHYITPLTFGAGTKLELK

What was measured:
[1] = molecular target: human Trop-2 on the surface of human tumor cells (human) (UniProt P09758); assay: cell binding on NCI-N87 cells, Bmax compared to RS7
[2] = molecular target: human Trop-2 on the surface of human tumor cells (human) (UniProt P09758); assay: cell binding on NCI-N87 cells, anti-mouse-HRP, luminescence
[3] = molecular target: human Trop-2 on the surface of human tumor cells (human) (UniProt P09758); assay: cell binding assay
[4] = molecular target: recombinant human neonatal receptor (FcRn) (human) (UniProt P55899); assay: SPR (BIACORE), low-density FcRn chip, three runs, 400 to 25 nM
Sequence of recombinant human neonatal receptor (FcRn) (human) (P55899 24-297 limits assumed, chain 1 of 2): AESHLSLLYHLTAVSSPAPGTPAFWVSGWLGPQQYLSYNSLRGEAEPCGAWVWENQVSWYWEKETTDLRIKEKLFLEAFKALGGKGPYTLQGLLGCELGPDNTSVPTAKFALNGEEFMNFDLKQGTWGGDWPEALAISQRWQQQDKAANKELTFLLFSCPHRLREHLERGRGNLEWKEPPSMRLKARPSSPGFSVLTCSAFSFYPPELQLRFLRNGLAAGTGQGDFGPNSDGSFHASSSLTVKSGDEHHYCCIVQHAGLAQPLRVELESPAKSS
Sequence of recombinant human neonatal receptor (FcRn) (human) (P61769 21-119 limits assumed, chain 2 of 2, further chain): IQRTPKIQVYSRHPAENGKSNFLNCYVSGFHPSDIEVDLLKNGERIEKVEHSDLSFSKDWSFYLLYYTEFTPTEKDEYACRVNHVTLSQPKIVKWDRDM

[5] = molecular target: rhTrop-2/TACSTD2 (Sino Biological, Inc.) immobilized on a CM5 sensor chip (human) (UniProt P09758); assay: SPR (BIACORE), low-density recombinant human Trop-2 chip, three runs
[6] = molecular target: recombinant human neonatal receptor (FcRn) (human) (UniProt P55899); assay: SPR (BIACORE), FcRn chip
[7] = molecular target: human Trop-2 on the surface of human tumor cells (human) (UniProt P09758); assay: cell-based or functional assay
[8] = molecular target: rhTrop-2/TACSTD2 (Sino Biological, Inc.) immobilized on a CM5 sensor chip (human) (UniProt P09758); assay: SPR (BIACORE), Trop-2 chip
[9] = molecular target: human Trop-2 on the surface of human tumor cells (human) (UniProt P09758); assay: cell-based or functional assay; remark: listed apart in the source
[10] = molecular target: recombinant human Trop-2 with a His-tag (Sino Biological, Cat#10428-H09H) (human) (UniProt P09758); assay: ELISA on Ni-NTA strips coated with recombinant His-tagged human Trop-2
[11] = molecular target: T1, human Trop-2 on the surface of human …; assay: cell binding on NCI-N87 cells, anti-mouse-HRP, luminescence

| Molecule | reduction of Bmax against RS7 [1] [%] | Kd [2] [nM] | maximum binding (Bmax) (relative luminescent units) [2] | Kd [3] [nM] | Kd [4] [nM] | Kd [5] [nM] | other results |
| --- | --- | --- | --- | --- | --- | --- | --- |
| 162-46.2 murine monoclonal antibody against human Trop-2 | 25 | 0.52 | 8470 | – | – | – | – |
| MAB650 murine monoclonal antibody against human Trop-2 (R&D Systems) | 50 | 0.49 | 6020 | – | – | – | – |
| sacituzumab govitecan (IMMU-132, hRS7-CL2A-SN-38) (antibody) | – | – | – | 1.2 | 192 | 0.26 | fold decrease in fold change of average binding level (reference not named; the comparison in paragraph 543 is with hRS7) [6]: 2 fold; ADCC, percent specific lysis of MDA-MB-468 cells (LDH release, E:T 50:1, 33.3 nM) [7]: 8.6%; median fluorescence intensity of anti-rH2AX-AF488 staining (dsDNA breaks), HCC1806 (Trop-2+) cells [7]: 546 MFI; γH2AX induction in BxPC-3 cells, Mean Fluorescence Intensity [7]: 5350 MFI; γH2AX induction in BxPC-3 cells, Percent Positive [7]: 69%; fold improvement of KD against naked hRS7 [8]: 2 fold |
| B1 | – | – | – | – | 92.4 | 0.51 | ADCC, percent specific lysis of BxPC-3 cells (PBMC effectors, E:T 100:1, 33.3 nM) [9]: 8.5%; ADCC, percent specific lysis of MDA-MB-468 cells (LDH release, E:T 50:1, 33.3 nM) [9]: 29.8%; Kd [10]: 0.3 nM |
| B2 | – | – | – | 1.2 | – | – | – |
| B3 | – | – | – | – | – | – | Kd [11]: 0.57 nM |
